Biological target: His-tagged ectodomains of hFcγRIIIA variant V158 (human) (UniProt P08637)
Assay: SPR (ProteON), His-tagged hFcγRIIIA V158 ectodomains on chip, mAb injected

Sequence of His-tagged ectodomains of hFcγRIIIA variant V158 (human) (P08637 other isoform, or with tags, fused parts or gaps mutant): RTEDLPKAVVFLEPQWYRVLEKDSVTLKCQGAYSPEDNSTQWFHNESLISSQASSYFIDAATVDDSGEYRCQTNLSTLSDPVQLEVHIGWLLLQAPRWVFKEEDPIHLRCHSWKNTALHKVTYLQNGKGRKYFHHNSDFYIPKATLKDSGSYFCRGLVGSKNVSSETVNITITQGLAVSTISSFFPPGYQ

| Kd | koff | kon | Substance |
| --- | --- | --- | --- |
| 2.1 nM | 0.00021 s⁻¹ | 300000 M⁻¹ s⁻¹ | Chimeric 3G8 hIgG1 (antibody) |
| 2.88 nM | 0.0003 s⁻¹ | 110000 M⁻¹ s⁻¹ | Chimeric 3G8 hIgG1 N297A format (antibody) |

— patent US20230227559A1
